Legend:
[1] = target: the molecule itself; test: native gel or EMSA; raf1 from Synechocystis co-expressed with rbcL genes in E. coli (or rbcL alone); crude extracts separated by native PAGE and probed with anti-RbcL or anti-RAF1 antibodies
[2] = target: T1, RbcL from Thermosynechococcus elongatus, made in E. coli (Thermosynechococcus vestitus (strain …, UniProt Q8DIS5)); test: co-expression in E. coli with co-purification of the complex; native PAGE
T1 chain: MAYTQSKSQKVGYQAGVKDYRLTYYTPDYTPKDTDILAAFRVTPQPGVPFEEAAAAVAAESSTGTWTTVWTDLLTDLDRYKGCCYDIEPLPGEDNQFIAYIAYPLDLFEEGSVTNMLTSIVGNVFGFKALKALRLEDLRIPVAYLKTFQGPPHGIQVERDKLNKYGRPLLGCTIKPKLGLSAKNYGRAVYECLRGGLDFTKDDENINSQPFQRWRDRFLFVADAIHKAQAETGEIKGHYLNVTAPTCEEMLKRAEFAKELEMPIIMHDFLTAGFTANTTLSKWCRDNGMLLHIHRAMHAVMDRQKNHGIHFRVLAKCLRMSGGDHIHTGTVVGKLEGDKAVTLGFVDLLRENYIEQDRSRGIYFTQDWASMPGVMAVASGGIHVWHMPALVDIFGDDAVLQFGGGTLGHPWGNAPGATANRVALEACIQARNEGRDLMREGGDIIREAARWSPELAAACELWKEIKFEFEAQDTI

B1: RbcL from Thermosynechococcus elongatus, made in E. coli (natural protein, UniProt Q8DIS5 1-475, looked up)
chain: MAYTQSKSQKVGYQAGVKDYRLTYYTPDYTPKDTDILAAFRVTPQPGVPFEEAAAAVAAESSTGTWTTVWTDLLTDLDRYKGCCYDIEPLPGEDNQFIAYIAYPLDLFEEGSVTNMLTSIVGNVFGFKALKALRLEDLRIPVAYLKTFQGPPHGIQVERDKLNKYGRPLLGCTIKPKLGLSAKNYGRAVYECLRGGLDFTKDDENINSQPFQRWRDRFLFVADAIHKAQAETGEIKGHYLNVTAPTCEEMLKRAEFAKELEMPIIMHDFLTAGFTANTTLSKWCRDNGMLLHIHRAMHAVMDRQKNHGIHFRVLAKCLRMSGGDHIHTGTVVGKLEGDKAVTLGFVDLLRENYIEQDRSRGIYFTQDWASMPGVMAVASGGIHVWHMPALVDIFGDDAVLQFGGGTLGHPWGNAPGATANRVALEACIQARNEGRDLMREGGDIIREAARWSPELAAACELWKEIKFEFEAQDTI
notes: Ribulose-1,5-bisphosphate carboxylase/oxygenase large subunit, Thermosynechococcus elongatus; rbcL gene in the previously described pUC18rbcL plasmid (Tarnawski et al. 2008); also called RbcLTe; Te; source: E. coli Rosetta, expressed alone or co-expressed with raf1 or rbcX from Synechocystis, in crude extract; complexes purified (ammonium sulfate, Q-Sepharose)
With B1 as the binder, how does the “stoichiometry N” value [1] read?
Its value is 8.

B2: RAF1 from Synechocystis sp. PCC 6803, untagged, made in E. coli (protein)
chain: MTHSPESNPTVSAAEAAELIRSLLHKEGTWVDWGKKCQQLQKAGYGAEEIFEQSGFQKVQQNLVIVASQVYESLVKQGIDETVLSYYRGPKSDVLYELRILNHQQRAIAAVEAQQKNLAADEAKELAKAFQEFGYLSQLPEGFTDHPGDALAYQCWKLARQKKNLPERTRLIVKGLKFAHSPNARQAIEKLLTDLTAQPSRKAPLVPVFRLEEDQEAARLIPVAGTFPLQPQAVQAVQSLEQVEPFGLVSYQGEGAVVPVPQWQAILTAEDPVAIFCPAGQVSESLARKDEQVLVVVDRSKKIWNDGSYFLLNQGETVAIQWCETEPEREILAQVVLVLRPKKIFDANNLREPWQMDD
Does B2 bind [2]?
Result: binds
